According to patent US20230365684A1:

Tests used:
[1] = target: human CD33 on cells (MOLM-13, Kasumi-1, OCI-AML-3, Kasumi-3) (human) (UniProt P20138); experiment: flow cytometry on MOLM-13 cells, 4 °C, detection with PE goat F(ab')2 anti-human IgG-Fc
[2] = target: human CD33 on cells (MOLM-13, Kasumi-1, OCI-AML-3, Kasumi-3) (human) (UniProt P20138); experiment: flow cytometry on Kasumi-1 cells, 4 °C, serial dilutions of the antibody
[3] = target: human CD33 on cells (MOLM-13, Kasumi-1, OCI-AML-3, Kasumi-3) (human) (UniProt P20138); experiment: flow cytometry on MOLM-13 cells, 4 °C, serial dilutions of the antibody
[4] = target: human CD33 on cells (MOLM-13, Kasumi-1, OCI-AML-3, Kasumi-3) (human) (UniProt P20138); experiment: flow cytometry on OCI-AML-3 cells, 4 °C, serial dilutions of the antibody

Chain of human CD33 on cells (MOLM-13, Kasumi-1, OCI-AML-3, Kasumi-3) (human) (P20138 18-364): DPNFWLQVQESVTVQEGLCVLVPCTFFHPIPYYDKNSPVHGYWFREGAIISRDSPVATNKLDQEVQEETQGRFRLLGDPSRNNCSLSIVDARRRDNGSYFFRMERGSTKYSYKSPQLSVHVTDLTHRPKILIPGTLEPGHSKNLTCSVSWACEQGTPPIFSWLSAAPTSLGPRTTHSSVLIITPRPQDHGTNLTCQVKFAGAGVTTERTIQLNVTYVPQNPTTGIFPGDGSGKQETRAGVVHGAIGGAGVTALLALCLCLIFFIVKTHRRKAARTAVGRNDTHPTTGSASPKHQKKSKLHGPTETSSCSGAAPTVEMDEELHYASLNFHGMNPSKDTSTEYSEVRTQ

EC50 (read off the curve) [1]: 0.04 µg/mL
EC50 [2]: 0.34 nM
EC50 [3]: 0.31 nM
EC50 [4]: 0.9 nM
B1: Lintuzumab (antibody, part only; not given: constant regions, V domains shown, not shown: another chain or arm of the molecule)
VH: QVQLVQSGAEVKKPGSSVKVSCKASGYTFTDYNMHWVRQAPGQGLEWIGYIYPYNGGTGYNQKFKSKATITADESTNTAYMELSSLRSEDTAVYYCARGRPAMDYWGQGTLVTVSS
VL: DIQMTQSPSSLSASVGDRVTITCRASESVDNYGISFMNWFQQKPGKAPKLLIYAASNQGSGVPSRFSGSGSGTDFTLTISSLQPDDFATYYCQQSKEVPWTFGQGTKVEIK
